The results in this text go back to article PMC6351565, “Mechanism of IRSp53 inhibition by 14-3-3” (Nature Communications, 2019).

Data set [1] deals with the molecule itself. The data set can be described thus: crystal structure; 14-3-3θ pre-incubated with singly (2.5:1) or doubly (0.6:1) phosphorylated IRSp53 peptides; hanging drop, 18 °C; resolution 2.0 to 2.9 Å.
The target of data set [2] is T1, FLAG-Eps8/pIRSp53 complex (human | human (from the printed UniProt …, UniProt Q12929 1-822)); Q9UQB8-4 1-521, natively phosphorylated in HEK293T cells (as m4)).
T1 construct: Eps8, human, UniProt Q12929, full length; IRSp53 (BAIAP2), isoform-4, UniProt Q9UQB8-4, full length; source: formed from purified 2xFLAG-Eps8 (HEK293T) and purified pIRSp53 (serum-starved HEK293T)
The data set can be described thus: pull-down; anti-Flag magnetic beads with or without the FLAG-Eps8/pIRSp53 complex; 14-3-3θ detected. Particulars: both partners purified.

The target in a further data set is T2, pIRSp53FS (human (from the printed UniProt entry), UniProt Q9UQB8-4 1-521, S519C, natively phosphorylated in HEK293T cells; fluorescein maleimide / rhodamine maleimide on C230 and C519).
T2 construct: IRSp53 (BAIAP2), isoform-4, UniProt Q9UQB8-4, full length, S519C; Expressed and purified as m4; also called IRSp53 FRET sensor; phosphorylated IRSp53 (mutant S519C)
T2 sequence (looked up): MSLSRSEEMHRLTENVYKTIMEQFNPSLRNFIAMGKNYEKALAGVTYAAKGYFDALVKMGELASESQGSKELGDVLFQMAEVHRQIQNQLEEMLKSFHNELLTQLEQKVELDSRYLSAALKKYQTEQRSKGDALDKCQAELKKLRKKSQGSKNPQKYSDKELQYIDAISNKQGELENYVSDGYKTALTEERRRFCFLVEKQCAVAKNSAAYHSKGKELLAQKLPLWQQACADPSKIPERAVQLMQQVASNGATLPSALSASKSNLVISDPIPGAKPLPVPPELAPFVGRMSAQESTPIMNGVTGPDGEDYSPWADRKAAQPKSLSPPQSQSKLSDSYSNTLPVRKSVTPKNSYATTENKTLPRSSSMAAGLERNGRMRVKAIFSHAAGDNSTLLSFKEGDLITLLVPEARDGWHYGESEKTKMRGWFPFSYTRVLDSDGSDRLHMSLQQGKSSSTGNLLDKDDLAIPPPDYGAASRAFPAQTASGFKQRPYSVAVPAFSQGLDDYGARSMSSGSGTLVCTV
The data set can be described thus: other fluorescence titration; intramolecular FRET sensor (fluorescein/rhodamine on C230 and C519 of IRSp53); Cdc42, Eps8 and/or 14-3-3θ titrated into the sensor, also back to back; 20 °C; 25 mM Tris-HCl pH 7.5, 150 mM NaCl, 1 mM MgCl2, 5% glycerol, 0.1 mM TCEP; observed Kd (Kobs) from the fits. The following applies: both partners purified.

In a further data set the target is T3, 2xFLAG-Eps8 (human, UniProt Q12929 1-822).
T3 construct: Eps8, human, UniProt Q12929, full length; also called FLAG-tagged Eps8
The data set can be described thus: pull-down; anti-Flag magnetic beads with or without the FLAG-Eps8/pIRSp53 complex; 14-3-3θ detected. Particulars: both partners purified.

A further data set concerns the target T4, pM234FS (human (from the printed UniProt entry), UniProt Q9UQB8-4 1-521, T340A | T360A | S366A | S519C, fluorescein / rhodamine labels as in pIRSp53FS (C230 and C519)).
T4 construct: IRSp53 (BAIAP2), isoform-4, UniProt Q9UQB8-4, full length, FRET sensor (S519C) with T340A/T360A/S366A; also called modified FRET sensor T340A/T360A/S366A; source: serum-starved HEK293T, purified, labelled
T4 sequence (looked up): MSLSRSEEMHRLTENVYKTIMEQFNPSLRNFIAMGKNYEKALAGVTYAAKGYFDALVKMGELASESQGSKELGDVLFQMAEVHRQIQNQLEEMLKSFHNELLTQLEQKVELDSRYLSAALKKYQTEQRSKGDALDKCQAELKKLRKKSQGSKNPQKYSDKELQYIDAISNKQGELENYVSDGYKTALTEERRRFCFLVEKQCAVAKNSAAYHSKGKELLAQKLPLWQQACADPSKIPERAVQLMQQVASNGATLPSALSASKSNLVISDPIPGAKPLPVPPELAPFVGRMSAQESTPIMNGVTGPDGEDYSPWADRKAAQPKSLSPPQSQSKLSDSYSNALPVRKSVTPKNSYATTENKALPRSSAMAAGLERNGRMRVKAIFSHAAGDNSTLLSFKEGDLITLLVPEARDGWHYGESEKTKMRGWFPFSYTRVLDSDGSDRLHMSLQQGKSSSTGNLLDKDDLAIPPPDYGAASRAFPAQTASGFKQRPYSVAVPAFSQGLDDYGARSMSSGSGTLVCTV
Put plainly: other fluorescence titration; intramolecular FRET sensor (fluorescein/rhodamine on C230 and C519 of IRSp53); Cdc42, Eps8 and/or 14-3-3θ titrated into the sensor, also back to back; 20 °C; 25 mM Tris-HCl pH 7.5, 150 mM NaCl, 1 mM MgCl2, 5% glycerol, 0.1 mM TCEP; observed Kd (Kobs) from the fits. The following applies: both partners purified.

T3 sequence (Q12929 whole entry): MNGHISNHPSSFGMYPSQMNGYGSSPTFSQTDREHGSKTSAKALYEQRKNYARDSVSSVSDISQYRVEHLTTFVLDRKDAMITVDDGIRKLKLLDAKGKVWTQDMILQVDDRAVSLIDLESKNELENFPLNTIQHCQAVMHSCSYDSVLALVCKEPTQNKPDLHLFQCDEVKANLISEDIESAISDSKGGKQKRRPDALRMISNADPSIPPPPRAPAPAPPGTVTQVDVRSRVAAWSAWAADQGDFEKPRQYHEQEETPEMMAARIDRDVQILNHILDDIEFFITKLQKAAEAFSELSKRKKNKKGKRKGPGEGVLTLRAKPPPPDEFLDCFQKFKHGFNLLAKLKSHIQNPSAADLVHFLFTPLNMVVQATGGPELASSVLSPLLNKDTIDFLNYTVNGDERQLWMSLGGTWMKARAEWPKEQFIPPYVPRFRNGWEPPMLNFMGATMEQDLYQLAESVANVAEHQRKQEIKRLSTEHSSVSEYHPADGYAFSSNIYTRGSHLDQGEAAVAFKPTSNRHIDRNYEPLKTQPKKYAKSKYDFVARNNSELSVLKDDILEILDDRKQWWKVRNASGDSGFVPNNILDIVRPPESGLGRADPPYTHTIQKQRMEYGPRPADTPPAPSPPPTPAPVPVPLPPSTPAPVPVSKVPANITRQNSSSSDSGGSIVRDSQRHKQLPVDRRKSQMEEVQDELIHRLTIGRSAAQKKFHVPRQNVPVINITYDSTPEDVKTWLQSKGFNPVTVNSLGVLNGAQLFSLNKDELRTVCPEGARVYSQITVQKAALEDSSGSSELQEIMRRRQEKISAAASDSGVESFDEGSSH
T1 sequence (Q12929 whole entry, canonical isoform, one chain of several): as the sequence (Q12929 whole entry) above

B1: 14-3-3θ (natural protein, human)
chain: MEKTELIQKAKLAEQAERYDDMATCMKAVTEQGAELSNEERNLLSVAYKNVVGGRRSAWRVISSIEQKTDTSDKKLQLIKDYREKVESELRSICTTVLELLDKYLIANATNPESKVFYLKMKGDYFRYLAEVACGDDRKQTIDNSQGAYQEAFDISKKEMQPTHPIRLGLALNFSVFYYEILNNPELACTLAKTAFDEAIAELDTLNEDSYKDSTLIMQLLRDNLTLWTSDSAGEECDAAEGAEN
notes: 14-3-3θ, human, UniProt P27348; also called 14-3-3 theta; 14-3-3τ
A word on the Kd: it is the concentration at which binding is half-saturated. As to B1, the binding result in data set [1] and in data set [2] was “binds” throughout. This molecule also returned a Kd with pIRSp53FS of 0.079 µM.

B2: IRSp53-FLAG (wild type), natively phosphorylated (natural protein, human (from the printed UniProt entry), UniProt Q9UQB8-4 1-521, looked up)
chain: MSLSRSEEMHRLTENVYKTIMEQFNPSLRNFIAMGKNYEKALAGVTYAAKGYFDALVKMGELASESQGSKELGDVLFQMAEVHRQIQNQLEEMLKSFHNELLTQLEQKVELDSRYLSAALKKYQTEQRSKGDALDKCQAELKKLRKKSQGSKNPQKYSDKELQYIDAISNKQGELENYVSDGYKTALTEERRRFCFLVEKQCAVAKNSAAYHSKGKELLAQKLPLWQQACADPSKIPERAVQLMQQVASNGATLPSALSASKSNLVISDPIPGAKPLPVPPELAPFVGRMSAQESTPIMNGVTGPDGEDYSPWADRKAAQPKSLSPPQSQSKLSDSYSNTLPVRKSVTPKNSYATTENKTLPRSSSMAAGLERNGRMRVKAIFSHAAGDNSTLLSFKEGDLITLLVPEARDGWHYGESEKTKMRGWFPFSYTRVLDSDGSDRLHMSLQQGKSSSTGNLLDKDDLAIPPPDYGAASRAFPAQTASGFKQRPYSVAVPAFSQGLDDYGARSMSSGSGTLVSTV
modifications: phosphorylated in HEK293T cells at S325, T340, T360, S366 and a residue within 452SSST455, most likely S454 (mass spectrometry of the purified 14-3-3-binding-competent fraction)
notes: also called pIRSp53; WT IRSp53-FLAG; source: HEK293T, transfected, in lysate; not shown: FLAG, C-terminal, kept
B2: the binding result with 2xFLAG-Eps8 is reported as “binds”.

B3: GMPPNP-Cdc42 (constitutively active mutant G12V) (domain or fragment)
chain: not shown
notes: Cdc42, human, residues 1-178, G12V; Loaded with GMPPNP; also called GNPPNP-Cdc42 (G12V mutant); source: E. coli BL21(DE3), purified
As to B3, the binding result in the data set with pM234FS is on record as “binds”. The same molecule returned a Kd with pIRSp53FS of 19.1 µM.
